# Assay: yeast display, Sf9 membrane polyspecificity reagent, FACS + sequencing; frameworks hold sequencing errors
# Summary of the method: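 Polyreactivity labels are assigned by the sorting gate from which each nanobody was recovered. The gates were low and high (top ~1%), set on anti-HA fluorescence for expression and streptavidin fluorescence for reagent binding. Before sorting, galactose-induced (36–48 hours) yeast display cells were stained for 1 hour at 4 °C with 10% biotinylated, detergent-solubilized Sf9 membrane reagent.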
row,Sequence,polyreactivity (PSR sort gate)
1,QVQLVESGGGLVQAGGSLRLSCAASGRTFGRYVMGWYRQAPGKERELVAAISKGGTSPYYADSVKGRFTISRDNAKNTVYLQMNSLKPEDTAVYYCAAGSFARYTYVPRYDYWGQGTQVTVSS,high polyreactivity
2,QVQLVESGGGLVQAGGSLRLSCAASGRTFGRYVMGWYRQAPGKERELVSAISKGGTSTYYADSVKGRFTISRDNAKNTVYLQMISLKPVVTAVYYCAAGSFARYTYVPRYDYWGQGTQVTVSS,high polyreactivity
3,QVQLVESGGGLVQAGGSLRLSCAASGRTFGSYAMGCYRPAPVKEREVVAGITWRDGSTYYADSVKGRFTISRDNAKNTDYLQMNSLKPEDTAVYYCAKEAVRYYLFGMEYWGQGTQVTVSS,low polyreactivity
4,QVQLVESGGGLVQAGGSLRLSCAASGRTFGSYAMGWYRQAPGKEREFVAAIYYGGGRTYYADSVKGRFSISRDNAKNTVYLQMNSLKAVDTAVYYCAADGVYRYNYPYLYTYDYWGQGTQVTVSS,low polyreactivity
5,QVQLVESGGGLVQAGGSLRLSCAASGRTFGSYVMGWYRQAPGKERELVAAITTSGGRTYYADSVKGRFTISRDNAKNTVYLQMNSLKPEDTAVYYCAAVQLTPTTLYRYYSWGQGTQVTVSS,high polyreactivity
6,QVQLVESGGGLVQAGGSLRLSCAASGRTFGTNAMGWYRQAPGKERELVASIDLSADSTYYADSVKGRFTISRDNAKNTVYLQMNSLKPEDTAVYYCNKDGYPWPPNLDYWGQGTQVTVSS,low polyreactivity
7,QVQLVESGGGLVQAGGSLRLSCAASGRTFGTYAMGWSRQAPGKERELVASITWSGTSTYYADSVKGRFTISRDNAKNTVYLQMNSLKPEDTAVYYCAAGWGYYRYYYWGQGTQVTVSS,high polyreactivity
8,QVQLVESGGGLVQAGGSLRLSCAASGRTFGVNAMGWYRQAPGKERELVAAINRGGSTYYADSVKGRFTISRDNAKNTVYLQMNSLKPEDTAVYYCAAYVSAVHRNSGYWGQGTQVTVSS,low polyreactivity
9,QVQLVESGGGLVQAGGSLRLSCAASGRTFGVNAMGWYRQAPGKERELVAAINWSADRTYYADSVKGRFTISRDNAKNTVYLQMNSLKPEDTAVYYCAVTQRWYWSYYGSDPSQYGYWGQGTQVTVSS,low polyreactivity
10,QVQLVESGGGLVQAGGSLRLSCAASGRTFGVYAMGWYRQAPGKERELVAAISRRAGNTYYADSVKGRFTISRDNAKNTVYLQMNSLKPEDTAVYYCAADFSRQYGYWGQGTQVTVSS,high polyreactivity
11,QVQLVESGGGLVQAGGSLRLSCAASGRTFGVYAMGWYRQAPGKERELVADITSGGGTYYADSVKGRFTILRDNAKNTVYLQMNSLKPEDTAVYYCAARKWYYAYDYWGQGTQVTVSS,high polyreactivity
12,QVQLVESGGGLVQAGGSLRLSCAASGRTFGWNVMGWYRQAPGKERELVAAISGSGGSTYYADSVKGRFTISRDNAKNTVYLQMNSLKPEDTAVYYCAALYGPGREYDYWGQGTQVTVSS,low polyreactivity
13,QVQLVESGGGLVQAGGSLRLSCAASGRTFGWTVMGWYRPAPGKDRELVAAISGSGGSTYYADSVKGRFTISRDNAKNTVYLQMNSLKPEDTAVYYCAALYGPAREYDYWGQGTQVTVSS,low polyreactivity
14,QVQLVESGGGLVQAGGSLRLSCAASGRTFGWYAMGWYRQAPGKEREFVASINTIGGSTYYADSVKGRFTISRDNAKNTVYLQMNSLKPEDTAVYYCAAVGYVIPYDSVGYTTTDYYWGQGTQVTVSS,low polyreactivity
15,QVQLVESGGGLVQAGGSLRLSCAASGRTFGWYAMGWYRQAPGKERELVAAITYPTGSTYYADSVKGRFTISRDNAKNTVYLQMNSLKPEDTAVYYCAAQGYISAGYKYDYWGQGTQVTVSS,low polyreactivity
16,QVQLVESGGGLVQAGGSLRLSCAASGRTFGWYAMGWYRQAPGKERELVASITQRGGRTYYADSVKGRFTISRDNAKNTVYLQMNSLKPEDTAVYYCAAKTSPGMYYWGQGTQVTVSS,high polyreactivity
17,QVQLVESGGGLVQAGGSLRLSCAASGRTFGWYTMGRYRQAPGKEREMVAGISSSGGSTYYADSVKGRFTISRDNAKNTVYLQMNSMKPEDTAVYYFARETYPHGLYYRPYDYWGQGTQVTVSS,low polyreactivity
18,QVQLVESGGGLVQAGGSLRLSCAASGRTFGYNAMGWYRQAPGKEREFVAAISGSGGRTYYADSVKGRFTISRDNAKNTVYLQMNSQKPEDTAVYYCAAGFGDGPGNGYYTRYSWDDDYWGQGTQVTVSS,low polyreactivity
19,QVQLVESGGGLVQAGGSLRLSCAASGRTFGYNAMGWYRQAPGKERELVAAITSGGGTKYADSVKGRFTISRDNAKNTVYLQMNSLKPEDTAVYYCAATYLYEWSRFVYDGLYYWGQGTQVTVSS,low polyreactivity
20,QVQLVESGGGLVQAGGSLRLSCAASGRTFGYNAMGWYRQAPGKERELVATISSSTVSTSYADSVKGRFTISRDNAKNTVYLQMNSLKPEDPAVYYCNARSRVSPTERVPYDSWGQGTQVTVSS,low polyreactivity
21,QVQLVESGGGLVQAGGSLRLSCAASGRTFGYNAMGWYRQAPGTERELVAAIRTIGDSTYYADSVKGRFTISRDNAKNTVYLQMNILKPVDTSVYYCAARKLRSRFDYWGQGTQVTVSS,high polyreactivity
22,QVQLVESGGGLVQAGGSLRLSCAASGRTFGYNGMGWYRQAPGKERELVAAINSGGNTNYADSVKGRFTISRDNAKNTVYLQMNSLKPEDTSVYYCAKYGTLYEPVPNEYDYWGQGTQVTVSS,low polyreactivity

row,Sequence,polyreactivity (PSR sort gate)
1,QVQLVESGGGLVQAGGSLRLSCAASGRTFGYNTMGWYRQAPGKERELVARITWSGASTYYADSVKGRFTISRDNAKNTVYLQMNSLKPEDTAVYYCNTAYTVSWRSPYDYWGQGTQVTVSS,high polyreactivity
2,QVQLVESGGGLVQAGGSLRLSCAASGRTFGYNTMGWYRQAPGKERELVATISRGGSTYYADSVKGRFTISRDNAKNTVYLQMNSLKPEDTAVYYCRYQSRFRYDYWGQGTQVTVSS,high polyreactivity
3,QVQLVESGGGLVQAGGSLRLSCAASGRTFGYNTMGWYRQQPGKEREFVAAINYSGGSTYYADSVKGRFTISRDYGKNTVYLQMNSLKPEDTAVYYCNAKPRWYVPYDYWGQGTQVTVSS,high polyreactivity
4,QVQLVESGGGLVQAGGSLRLSCAASGRTFGYNVMGWYRQAPGKARELVAGIRYSGGSTYYADSVKGRFTISRDNAKNTVYLQMNSLKPEDTAVYYCHAVDRNQYDYWGQGTQVTVSS,high polyreactivity
5,QVQLVESGGGLVQAGGSLRLSCAASGRTFGYYAMGWYRKAPGKERELVAAISWRGTSTYYADSVKGRFTISRDNAKNTVYLQMNSLKPEDTAVYYCAVGRTVAHRFIAGDYWGQGTQVTVSS,high polyreactivity
6,QVQLVESGGGLVQAGGSLRLSCAASGRTFGYYAMGWYRQAPGKEREFVAAISHSAGSTSYADSVKGRFTISRDNAKNTVYLQMNSLKPEDTAVYYCAADNPWYEMDYWGQGTQVTVSS,low polyreactivity
7,QVQLVESGGGLVQAGGSLRLSCAASGRTFGYYAMGWYRQAPGKERELVAAISSSGGSTYYADSVKGRFTISRDNAKNTVYLQMNSLKPEDTAVYYCAARFANGGGYWGQGTQVTVSS,high polyreactivity
8,QVQLVESGGGLVQAGGSLRLSCAASGRTFGYYAMGWYRQAPGKERELVATITFGGGSTYYADSVKGRFTISRDNAKNTVYLQMNSLKPEDTAVYYCAADTSVHSEVDYWGQGTQVTVSS,low polyreactivity
9,QVQLVESGGGLVQAGGSLRLSCAASGRTFGYYAMGWYRQAPGQERELVAAISSGGGTYYADSVKGRFTISRDNAKNTVYVQMNSLKPEDTAVYYCAATGWVYWGQFDYWGEGTQVTVSS,low polyreactivity
10,QVQLVESGGGLVQAGGSLRLSCAASGRTFGYYAMGWYRQATGKERELVAAISWSDSGTYYADSVKGRFTISRDNAKNTVYLQMNSLKPEDTAVYYCAKDEPYFVFRDTYDYWGQGTQVTVSS,high polyreactivity
11,QVQLVESGGGLVQAGGSLRLSCAASGRTFGYYTMGWYRQAPGKERELVAAITSSGGSTYYADSVKGRFTISRDNAKNTVYLQMNSLKPEDTAVDYCAARAAYYFLYSAMYYWGQGTQVTVSS,high polyreactivity
12,QVQLVESGGGLVQAGGSLRLSCAASGRTFGYYTMGWYRQAPGKERELVAAITWSGSTYYADSVKGRFTISRDNAKNTVYLQMNSLKPEDTAVYYCAVEIYYFVYGISYDYWGQGTQVTVSS,high polyreactivity
13,QVQLVESGGGLVQAGGSLRLSCAASGRTFGYYTMGWYRQAPGKEWELVATITRGGTTKYADSVKGRFTISRDNAKNTVYLQMNSLKPEDTAVYYCNARERGSRQYTFDYWGQGTQVTVSS,high polyreactivity
14,QVQLVESGGGLVQAGGSLRLSCAASGRTFGYYVMGWSRQAPGKETELVAAISNTDSTYYADSVKGRFTISRDNAKNTVYLQMNSLKPEDTAVYYCARDDAYSDFDYDYWGQGTQVTVSS,low polyreactivity
15,QVQLVESGGGLVQAGGSLRLSCAASGRTFHIYAMGWYRQAPGKERELVAAIRGRSGSTYYADSVKGRFTISRDNAKNTVYLQLNSLKPEDTAVYYCAVGRYPYGSARYRFDYWGQGTQVTVSS,high polyreactivity
16,QVQLVESGGGLVQAGGSLRLSCAASGRTFHNYAMGWYRQAPGKEREFVAVITGSGGRTYYADSVKGRFTISRDNAKNTVYLQMNSLKPEDTAVYYCNRVSRYYLYDYWGQGTQVTVSS,high polyreactivity
17,QVQLVESGGGLVQAGGSLRLSCAASGRTFHPYAMGWYRQAPGKERELVAAITISTNYADSVKGRFTISRDNAKNTVSLQMNSVKPEDTAVYYCNADFVRPSWARGRNNGLYYWGQGTQVTVSS,low polyreactivity
18,QVQLVESGGGLVQAGGSLRLSCAASGRTFHPYAMGWYRQAPGKERELVAAITSIGGSTFYADSVKGRFTISRDNAKNNVYLQLTSLKPEDTAVYFCNAESSYYYGTAAYEYWGQGTQVSVSS,low polyreactivity
19,QVQLVESGGGLVQAGGSLRLSCAASGRTFHRYVMGWYRQAPGKERELVAAITRSGGITYYADSVKGRFTISRDNAKNTVYLQMNSLKPEDTAVYYCAKDDQTASGFDYWGQGTQVTVSS,low polyreactivity
20,QVQLVESGGGLVQAGGSLRLSCAASGRTFHSYAMGWYRQAPGKERELVAAITSSGGSTYYADSVKGRFTISRDNAKNTVYLQMNSLKPEDTAVYYGNAYVRYGYGYYYWGQGTQVTVSS,high polyreactivity
21,QVQLVESGGGLVQAGGSLRLSCAASGRTFHWYTLGWYRQAPGKEREFVAGINWSGARTYYADSVKGRFTISRDNAKNTVYLQMNSLKPEDTAVYYCNKRDRYRLYGYNYWGQGTQVTVSS,high polyreactivity
